According to the supplement of paper PMC10724198:
± gives the standard deviation of the averaged measurements.

Key:
[1] = tested on: Saccharomyces cerevisiae; experiment: protein stability index of tFT-peptide fusion (C-terminal peptide) (PSI (0-1 scale)); higher = more stable (slower turnover)
Method: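 MPS profiling in S. cerevisiae of the tFT-X12 degron library: putative degron peptides plus stable controls, 12 aa, fused to the C-terminus of a sfGFP-mCherry timer. Cells are FACS-sorted into 8 mCherry/sfGFP bins and deep-sequenced. PSI runs from 0 (unstable) to 1 (stable). Backgrounds are wild type, das1Δ and doa10Δ at 30 °C, and wild type, das1Δ, cdc34-1 and cdc53-1 at 37 °C; 2-3 technical replicates each.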

[2] = tested on: Saccharomyces cerevisiae; experiment: as above; settings: genetic background: wild type; temperature: 30 C
[3] = genetic background: cdc34-1, temperature: 37 C
[4] = genetic background: cdc53-1, temperature: 37 C
[5] = genetic background: das1 deletion, temperature: 30 C
[6] = genetic background: das1 deletion, temperature: 37 C
[7] = genetic background: doa10 deletion, temperature: 30 C
[8] = genetic background: wild type, temperature: 30 C
[9] = genetic background: wild type, temperature: 37 C
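Further: PSI is a weighted mean of sequencing reads over stability bins, variants kept only with over 10 reads, mCherry proximal and sfGFP distal, peptide attached via GGGS linker.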

Sequence | protein stability index [1, 3] | protein stability index [1, 4] | protein stability index [1, 5] | protein stability index [1, 6] | protein stability index [1, 7] | protein stability index [1, 8] | protein stability index [1, 9] | protein stability index [2]
VLWVYLFLFVIF | 0.266 ± 0.04 | 0.291 ± 0.033 | 0.248 ± 0.022 | 0.346 ± 0.0079 | 0.235 ± 0.025 | 0.211 ± 0.019 | 0.325 ± 0.019 | 0.255 ± 0.05
GLFFLCLLSMCF | 0.34 ± 0.012 | 0.303 ± 0.021 | 0.306 ± 0.029 | 0.423 ± 0.023 | 0.336 ± 0.014 | 0.29 ± 0.029 | 0.396 ± 0.0071 | 0.384 ± 0.061
VSLCVVYGLVVG | 0.337 ± 0.024 | 0.377 ± 0.022 | 0.29 ± 0.029 | 0.446 ± 0.015 | 0.2523 ± 0.0025 | 0.289 ± 0.022 | 0.411 ± 0.0082 | 0.373 ± 0.017
GVVCCGFFFLVV | 0.475 ± 0.012 | 0.525 ± 0.028 | 0.401 ± 0.024 | 0.57 ± 0.018 | 0.363 ± 0.0058 | 0.41 ± 0.04 | 0.528 ± 0.055 | 0.464 ± 0.016
LASLSRPFRAKF | 0.9674 ± 0.0085 | 0.949 ± 0.026 | 0.843 ± 0.011 | 0.914 ± 0.013 | 0.828 ± 0.029 | 0.8573 ± 0.0074 | 0.916 ± 0.012 | 0.792 ± 0.0093
FLVVCGLLSWVW | 0.324 ± 0.00073 | 0.407 ± 0.029 | 0.263 ± 0.039 | 0.455 ± 0.015 | 0.232 ± 0.0053 | 0.28 ± 0.032 | 0.4291 ± 0.003 | 0.348 ± 0.05
QWRSWSFATLVT | 0.332 ± 0.017 | 0.321 ± 0.012 | 0.266 ± 0.049 | 0.424 ± 0.0064 | 0.22 ± 0.0082 | 0.258 ± 0.038 | 0.409 ± 0.0052 | 0.383 ± 0.0045
GRWAFFTWLRWS | 0.553 ± 0.016 | 0.674 ± 0.016 | 0.62 ± 0.047 | 0.6825 ± 0.0042 | 0.175 ± 0.0041 | 0.177 ± 0.025 | 0.269 ± 0.047 | 0.261 ± 0.014
SSCFLLFRVVWR | 0.285 ± 0.01 | 0.321 ± 0.0088 | 0.257 ± 0.03 | 0.436 ± 0.0013 | 0.292 ± 0.005 | 0.244 ± 0.026 | 0.412 ± 0.016 | 0.367 ± 0.011
CTLVFLFFDLCS | 0.413 ± 0.015 | 0.533 ± 0.087 | 0.333 ± 0.042 | 0.497 ± 0.03 | 0.263 ± 0.014 | 0.304 ± 0.018 | 0.4904 ± 0.0021 | 0.405 ± 0.053
YYVIFHLFSFLI | 0.427 ± 0.025 | 0.478 ± 0.0057 | 0.383 ± 0.033 | 0.533 ± 0.048 | 0.288 ± 0.0055 | 0.293 ± 0.022 | 0.493 ± 0.026 | 0.392 ± 0.094
QIGSMLGVQGVG | 0.454 ± 0.017 | 0.526 ± 0.013 | 0.461 ± 0.013 | 0.516 ± 0.0073 | 0.495 ± 0.014 | 0.4672 ± 0.0041 | 0.545 ± 0.027 | 0.498 ± 0.031
HSRRRRPTPQSL | 0.609 ± 0.047 | 0.65 ± 0.016 | 0.651 ± 0.036 | 0.636 ± 0.011 | 0.662 ± 0.014 | 0.64 ± 0.019 | 0.61 ± 0.016 | 0.571 ± 0.12
RRIKNRRLKQVT | 0.63 ± 0.076 | 0.694 ± 0.011 | 0.666 ± 0.064 | 0.722 ± 0.0067 | 0.214 ± 0.0054 | 0.283 ± 0.026 | 0.472 ± 0.036 | 0.43 ± 0.033
RLICFFSMYLRF | 0.239 ± 0.024 | 0.17 ± 0.064 | 0.367 ± 0.058 | 0.395 ± 0.006 | 0.614 ± 0.029 | 0.355 ± 0.026 | 0.369 ± 0.022 | 0.334 ± 0.14
PLCLFPPLLVFL | 0.492 ± 0.044 | 0.526 ± 0.034 | 0.411 ± 0.024 | 0.556 ± 0.021 | 0.453 ± 0.022 | 0.387 ± 0.02 | 0.5103 ± 0.0047 | 0.462 ± 0.032
YVGILCTGILTV | 0.522 ± 0.024 | 0.54 ± 0.045 | 0.405 ± 0.026 | 0.564 ± 0.0085 | 0.38 ± 0.011 | 0.41 ± 0.017 | 0.549 ± 0.013 | 0.438 ± 0.0072
VCLVLVVVWWSG | 0.219 ± 0.0066 | 0.277 ± 0.028 | 0.222 ± 0.021 | 0.338 ± 0.0041 | 0.1895 ± 0.0012 | 0.201 ± 0.027 | 0.313 ± 0.012 | 0.292 ± 0.024
FPSCYIWEVEVM | 0.403 ± 0.049 | 0.403 ± 0.021 | 0.32 ± 0.039 | 0.484 ± 0.038 | 0.268 ± 0.0021 | 0.333 ± 0.023 | 0.436 ± 0.0047 | 0.442 ± 0.037
SLRYRFLSFFFL | 0.615 ± 0.038 | 0.72 ± 0.018 | 0.636 ± 0.055 | 0.7089 ± 0.0057 | 0.189 ± 0.015 | 0.208 ± 0.019 | 0.338 ± 0.023 | 0.282 ± 0.026

Sequence | protein stability index [1, 3] | protein stability index [1, 4] | protein stability index [1, 5] | protein stability index [1, 6] | protein stability index [1, 7] | protein stability index [1, 8] | protein stability index [1, 9] | protein stability index [2]
PPPPPPPSSSSL | 0.667 ± 0.041 | 0.735 ± 0.027 | 0.672 ± 0.017 | 0.722 ± 0.011 | 0.674 ± 0.013 | 0.696 ± 0.037 | 0.727 ± 0.03 | 0.388 ± 0.0099
LAGSSSIVVVFG | 0.445 ± 0.00068 | 0.469 ± 0.04 | 0.299 ± 0.038 | 0.527 ± 0.0056 | 0.2496 ± 0.0021 | 0.297 ± 0.049 | 0.496 ± 0.026 | 0.406 ± 0.018
RCTFSFSFPFVL | 0.738 ± 0.032 | 0.754 ± 0.034 | 0.601 ± 0.0084 | 0.768 ± 0.0096 | 0.5998 ± 0.0024 | 0.602 ± 0.023 | 0.729 ± 0.011 | 0.596 ± 0.15
MLCVFVFIWYFV | 0.235 ± 0.03 | 0.279 ± 0.013 | 0.254 ± 0.011 | 0.359 ± 0.0048 | 0.218 ± 0.013 | 0.208 ± 0.024 | 0.307 ± 0.02 | 0.235 ± 0.011
VRELGVGGWRRQ | 0.58 ± 0.08 | 0.7 ± 0.0064 | 0.619 ± 0.016 | 0.752 ± 0.004 | 0.11 ± 0.012 | 0.129 ± 0.012 | 0.405 ± 0.0063 | 0.283 ± 0.01
WGAHRVRVSRIL | 0.686 ± 0.034 | 0.768 ± 0.021 | 0.656 ± 0.028 | 0.742 ± 0.0081 | 0.295 ± 0.003 | 0.326 ± 0.043 | 0.516 ± 0.0052 | 0.509 ± 0.016
LQSYIFSVRGIS | 0.707 ± 0.02 | 0.697 ± 0.018 | 0.601 ± 0.029 | 0.707 ± 0.029 | 0.418 ± 0.054 | 0.45 ± 0.046 | 0.638 ± 0.0012 | 0.533 ± 0.078
PSRLSFALLFHL | 0.6483 ± 0.00029 | 0.682 ± 0.017 | 0.645 ± 0.018 | 0.7268 ± 0.0049 | 0.395 ± 0.025 | 0.406 ± 0.039 | 0.545 ± 0.0058 | 0.49 ± 0.025
FVFCGVVFLFLL | 0.399 ± 0.033 | 0.467 ± 0.0057 | 0.395 ± 0.058 | 0.519 ± 0.018 | 0.347 ± 0.0093 | 0.326 ± 0.018 | 0.462 ± 0.0044 | 0.351 ± 0.086
CLGLFPSLLRLS | 0.666 ± 0.031 | 0.737 ± 0.021 | 0.644 ± 0.02 | 0.731 ± 0.0092 | 0.285 ± 0.026 | 0.291 ± 0.033 | 0.535 ± 0.009 | 0.325 ± 0.032
VYVVLGTVYVTY | 0.195 ± 0.014 | 0.325 ± 0.013 | 0.194 ± 0.025 | 0.381 ± 0.0087 | 0.166 ± 0.0049 | 0.187 ± 0.031 | 0.362 ± 0.021 | 0.273 ± 0.025
GCSVSLCCVFVV | 0.489 ± 0.016 | 0.503 ± 0.021 | 0.36 ± 0.028 | 0.525 ± 0.01 | 0.2589 ± 0.0012 | 0.282 ± 0.025 | 0.433 ± 0.0093 | 0.372 ± 0.022
EGLDVRILIQVI | 0.0334 ± 0.016 | 0.0735 ± 0.0072 | 0.179 ± 0.025 | 0.197 ± 0.0041 | 0.1362 ± 0.0008 | 0.164 ± 0.025 | 0.154 ± 0.019 | 0.294 ± 0.0068
FGGICFAVLLCR | 0.246 ± 0.016 | 0.262 ± 0.0027 | 0.263 ± 0.035 | 0.3926 ± 0.0036 | 0.258 ± 0.0034 | 0.244 ± 0.0097 | 0.357 ± 0.021 | 0.343 ± 0.013
SRLVSRLGLYLS | 0.656 ± 0.054 | 0.71 ± 0.0097 | 0.626 ± 0.013 | 0.728 ± 0.035 | 0.214 ± 0.0099 | 0.22 ± 0.022 | 0.475 ± 0.03 | 0.361 ± 0.02
PPIPTPSPIPLH | 0.66 ± 0.018 | 0.726 ± 0.0011 | 0.653 ± 0.017 | 0.695 ± 0.021 | 0.667 ± 0.011 | 0.658 ± 0.017 | 0.677 ± 0.015 | 0.7119 ± 0.0055
FYAAILCLLFSC | 0.478 ± 0.037 | 0.512 ± 0.014 | 0.45 ± 0.035 | 0.546 ± 0.013 | 0.22913 ± 0.00013 | 0.265 ± 0.021 | 0.385 ± 0.0066 | 0.341 ± 0.012
FLCFFGGCFFLV | 0.581 ± 0.032 | 0.646 ± 0.06 | 0.523 ± 0.029 | 0.6462 ± 0.0016 | 0.4162 ± 0.0038 | 0.401 ± 0.025 | 0.5617 ± 0.0015 | 0.468 ± 0.0077
IIAGVWFLEILG | 0.4134 ± 0.0039 | 0.525 ± 0.009 | 0.333 ± 0.027 | 0.527 ± 0.012 | 0.308 ± 0.012 | 0.312 ± 0.022 | 0.497 ± 0.023 | 0.479 ± 0.015
